Results published in US20260234226A1 (IMAGINAB, published 2026).

T1: DLL3 on tumor cells of the SHP-77 and NCI-H82 cell lines (UniProt Q9NYJ7 27-618, limits assumed)
T1 construct: whole, on cells; also called cellular targets
T1 sequence (looked up): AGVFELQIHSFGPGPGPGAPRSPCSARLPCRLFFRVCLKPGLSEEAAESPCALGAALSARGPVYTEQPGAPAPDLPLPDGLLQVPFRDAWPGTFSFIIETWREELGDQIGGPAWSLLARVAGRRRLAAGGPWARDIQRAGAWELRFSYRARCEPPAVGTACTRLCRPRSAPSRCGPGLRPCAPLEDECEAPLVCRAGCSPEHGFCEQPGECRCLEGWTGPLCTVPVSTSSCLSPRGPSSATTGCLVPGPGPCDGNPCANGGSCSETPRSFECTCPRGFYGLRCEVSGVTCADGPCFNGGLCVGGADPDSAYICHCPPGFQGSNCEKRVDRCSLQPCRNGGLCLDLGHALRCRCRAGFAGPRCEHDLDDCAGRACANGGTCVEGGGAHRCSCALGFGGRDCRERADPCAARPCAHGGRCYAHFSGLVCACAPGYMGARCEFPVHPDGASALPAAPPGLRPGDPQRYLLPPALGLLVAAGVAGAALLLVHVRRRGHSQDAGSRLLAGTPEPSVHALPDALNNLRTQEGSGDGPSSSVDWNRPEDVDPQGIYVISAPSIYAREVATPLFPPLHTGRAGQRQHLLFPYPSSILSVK


Tests used:
[1] = biological target: T2, purified human/cynomolgus/dog/mouse/rat or minipig DLL3 antigen (ELISA coat) (human/cynomolgus/dog/mouse/rat or …); test: ELISA, plate coated with purified DLL3 antigen, HRP secondary (FIG. 8)
T2 construct: May be the same protein as the his-tagged antigen used for BLI
T2 sequence (Q9NYJ7 whole entry): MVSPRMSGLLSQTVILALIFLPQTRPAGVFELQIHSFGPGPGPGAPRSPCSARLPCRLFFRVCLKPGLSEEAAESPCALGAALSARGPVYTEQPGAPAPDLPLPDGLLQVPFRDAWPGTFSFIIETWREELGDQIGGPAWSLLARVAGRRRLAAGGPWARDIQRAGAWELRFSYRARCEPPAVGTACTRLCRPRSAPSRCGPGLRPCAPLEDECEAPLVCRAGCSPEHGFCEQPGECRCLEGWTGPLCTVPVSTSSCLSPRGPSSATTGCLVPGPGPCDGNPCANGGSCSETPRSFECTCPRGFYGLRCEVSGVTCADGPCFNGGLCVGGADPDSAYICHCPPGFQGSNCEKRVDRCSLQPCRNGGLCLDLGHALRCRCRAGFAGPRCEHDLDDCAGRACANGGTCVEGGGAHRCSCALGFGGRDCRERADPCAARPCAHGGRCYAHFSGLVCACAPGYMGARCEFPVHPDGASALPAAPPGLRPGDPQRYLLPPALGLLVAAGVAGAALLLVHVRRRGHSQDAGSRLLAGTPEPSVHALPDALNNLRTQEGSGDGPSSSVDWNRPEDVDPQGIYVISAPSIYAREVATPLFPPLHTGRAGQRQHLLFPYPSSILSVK
Procedure: (§1) Binding affinity of the novel antigen binding constructs to a purified human/cynomolgus/dog/mouse/rat or minipig DLL3 antigen was assessed using ELISA. For this assay, a 96 well ELISA plate was coated with the DLL3 antigen diluted to a concentration of […] in coating buffer (0.05M sodium carbonate-bicarbonate buffer, pH 9.6). 100 μl of this coating solution was added to each well in the plate and incubate at 4° C. overnight. The plate was washed 3 times with 300 μl per well of washing buffer (PBS with 0.05% Tween-20). After the last wash, the plate was blocked by adding to each well 200 μl of blocking buffer (PBS with 1% BSA) warmed to room temperature. The plate was then incubated at room temperature for 1 hour under gentle agitation. After blocking, the plate was washed 3 times with 300 μl per well of washing buffer. Dilution samples for each minibody were created by making 2.5× dilutions from a starting sample at 100 ng/mL, or 250 ng/mL, or 1000 ng/mL or 3000 ng/mL in 100 μL sample buffer (PBS with 1% BSA). The dilution samples were transferred to the assay plate and incubated at room temperature for 1 hour under gentle agitation. The plate was then washed 3 times with 300 μl per well of washing buffer.
Detection was performed by adding 100 μl of HRP labeled detection secondary antibody at an appropriate dilution and incubating the plate at room temperature for 1 hour under gentle agitation. The plate was then washed 3 times with 300 μl per well of washing buffer. For color development, 100 μl of TMB substrate regent, pre-warmed to room temperature, was added to the plate and incubated in the dark at room temperature for 15 min. The reaction was then stopped by adding 100 μl of 650 nm stop solution to the plate and mixed for 1 min at room temperature under gentle agitation. The plate is recorded by reading OD at 650 nm in a plate reader within 20 min after terminating the reaction.

[2] = biological target: T3, his-tagged-DLL3 antigen (purified human/cynomolgus/dog/mouse/rat or minipig DLL3 antigen) (human/cynomolgus/dog/mouse/rat or …); test: biolayer interferometry (Octet BLItz), his-tagged DLL3 on nickel-NTA tip, minibody in solution
T3 construct: Antigen loaded on nickel-NTA tips for biolayer interferometry; also called Delta-like protein 3
T3 sequence (Q9NYJ7 whole entry): as above
Procedure: (§2) As disclosed herein, the binding kinetics of the novel antigen binding constructs to a purified human/cynomolgus/dog/mouse/rat or minipig DLL3 antigen was assessed using biolayer interferometry (TABLE 9) (FIG. 9). The his-tagged-DLL3 antigen was diluted in phosphate buffer saline (PBS) at 10 μg/mL and loaded on a nickel-NTA tip until saturation. The on-rate (Kon) and off-rate (Koff), and the dissociation constant KD, where recorded on Octet BLItz instrument. Dilution samples of the antigen binding construct were prepared in PBS at concentrations between 100 nM and 0.1 nM, by 2.5× dilutions and binding curves recorded at each concentration. Off-rate curves were recorded by immersion of the tip in PBS.

[3] = biological target: T3, his-tagged-DLL3 antigen (purified …); test: biolayer interferometry, his-tagged DLL3 on a Ni-NTA tip, minibody at 100 nM; the table gives no unit, nm is from the axis 'Binding (nm)'
Procedure: as §2

[4] = biological target: T2, purified human/cynomolgus/dog/mouse/rat …; test: ELISA on plate-coated recombinant DLL3 antigen, A650 readout, left panel 'DLL3 ELISA'; the table gives no unit, nM is from the axis 'Antibody Concentration (nM)'
Procedure: as §1, with “The dilution samples were transferred to the assay plate and incubated at room temperature for 1 hour under gentle agitation. The plate was then washed 3 times with 300 μl per well of washing buffer.” left out
(§3) Detection was performed by adding 100 μl of HRP labeled detection secondary antibody at an appropriate dilution and incubating the plate at room temperature for 1 hour under gentle agitation. […] The plate is recorded by reading OD at 650 nm in a plate reader within 20 min after terminating the reaction.

[5] = biological target: T1, DLL3 on tumor cells of the SHP-77 and …; test: flow cytometry on SHP-77 tumor cells, mean fluorescence; the legend gives no unit, nM is from the axis '[Minibody],nM'
Procedure: (§4) As disclosed herein, the binding of constructs to cellular targets was assessed using flow cytometry. Stock of 2.5× serial dilution of minibodies were created starting from a concentration of 100 nM in 180 μl FACS buffer (PBS 2% FBS). Cells were added to a Corning V-bottom polypropylene cell culture plate at 200,000 cells/well. The cells were centrifuged at 100 rpm for 3 minutes and the supernatant discarded. The minibody dilution series were transferred to the plate containing cell pellets and incubated for 1 hr at 4° C. The plate was then washed 3 times with FACS buffer at 200 μl/well, discarding supernatant after each wash by centrifugation at 1000 rpm. 50 μl/well of detection antibody R&D AlexaFluor-647 Goat anti Human (H+L) was added at a 1:100 dilution in FACS buffer and incubated at 4° C. 1 hr. The plate was washed 3 times with FACS buffer at 200 μl/well, discarding supernatant after each wash by centrifuging at 1000 rpm. Cells were then fixed by adding 100 μl of 1% paraformaldehyde in PBS and incubating at room temperature for 15 minutes. 100 μl of PBS were added to each well and the plate was analyzed by flow cytometry using the allophycocyanin fluorescence setting.

[6] = biological target: T1, DLL3 on tumor cells of the SHP-77 and …; test: flow cytometry on NCI-H82 tumor cells, mean fluorescence; the legend gives no unit, nM is from the axis '[Minibody],nM'
Procedure: as §4

[7] = biological target: T2, purified human/cynomolgus/dog/mouse/rat …; test: ELISA on plate-coated recombinant DLL3 antigen, A650 readout, panel with IAB57M1-7, IAB57M2-8, IAB57M1-3 and IAB57M2-6; the table gives no unit, nM is from the axis 'Antibody Concentration (nM)'
Procedure: as §1, with “The dilution samples were transferred to the assay plate and incubated at room temperature for 1 hour under gentle agitation. The plate was then washed 3 times with 300 μl per well of washing buffer.” left out
as §3

Row | Binder | EC50 [1] | Kd [2] | koff [2] | kon [2] | R equilibrium [3] | EC50 [4] | EC50 [5] | EC50 [6] | EC50 [7]
1 | IAB57M2-2 (other, Parental minibody; Signal peptide left out; also called parental minibody IAB57M2-2) QVQLVQSGAEVKKPGASVKVSCKASGYTFTNYGMNWVRQAPGQGLEWMGWINTYTGEPTYADDFKGRVTMTTDTSTSTAYMELRSLRSDDTAVYYCARIGDSSPSDYWGQGTLVTVSSGSTSGGGSGGGSGGGGSSEIVMTQSPATLSVSPGERATLSCKASQSVSNDVVWYQQKPGQAPRLLIYYASNRYTGIPARFSGSGSGTEFTLTISSLQSEDFAVYYCQQDYTSPWTFGQGTKLEIKEPKSSDKTHTCPPCPPCGGGSSGGGSGGQPREPQVYTLPPSREEMTKNQVSLTCLVKGFYPSDIAVEWESNGQPENNYKTTPPVLDSDGSFFLYSKLTVDKSRWQQGNVFSCSVMHEALHNHYTQKSLSLSPG | 0.12 nM | 3.07 nM | 0.00214 s⁻¹ | 698000 M⁻¹ s⁻¹ | 0.876 nm | 0.132 nM | – | – | –
2 | IAB57M2-4 (other, Signal peptide left out) QVQLVQSGAEVKKPGASVKVSCKASGYTFTNYGMNWVRQAPGQGLEWMGWINTYTGEPTYADDFKGRVTMTTDTSTSTAYMELRSLRSDDTAVYYCARIGDSSPSDYWGQGTLVTVSSGSTSGGGSGGGSGGGGSSEIVMTQSPATLSVSPGERATLSCKASQSVSNDVVWYQQKPGQAPRLLIYDASNRYTGIPARFSGSGSGTEFTLTISSLQSEDFAVYYCQQDYTSPWTFGQGTKLEIKEPKSSDKTHTCPPCPPCGGGSSGGGSGGQPREPQVYTLPPSREEMTKNQVSLTCLVKGFYPSDIAVEWESNGQPENNYKTTPPVLDSDGSFFLYSKLTVDKSRWQQGNVFSCSVMHEALHNHYTQKSLSLSPG | 0.118 nM | 4.84 nM | 0.00281 s⁻¹ | 581000 M⁻¹ s⁻¹ | 0.911 nm | – | – | – | –
3 | IAB57M2-6 (other, Signal peptide left out) QVQLVQSGAEVKKPGASVKVSCKASGYTFTNYGMNWVRQAPGQGLEWMGWINTYTGEPTYADDFKGRVTMTTDTSTSTAYMELRSLRSDDTAVYYCARIGDSSPSDYWGQGTLVTVSSGSTSGGGSGGGSGGGGSSEIVMTQSPATLSVSPGERATLSCKASQSVSNDVVWYQQKPGQAPRLLIYYASNRNTGIPARFSGSGSGTEFTLTISSLQSEDFAVYYCQQDYTSPWTFGQGTKLEIKEPKSSDKTHTCPPCPPCGGGSSGGGSGGQPREPQVYTLPPSREEMTKNQVSLTCLVKGFYPSDIAVEWESNGQPENNYKTTPPVLDSDGSFFLYSKLTVDKSRWQQGNVFSCSVMHEALHNHYTQKSLSLSPG | 0.161 nM | < 0.001 nM | < 1e-07 s⁻¹ | 785000 M⁻¹ s⁻¹ | – | – | 0.014 nM | 0.063 nM | 0.157 nM
4 | IAB57M2-8 (other, Signal peptide left out) QVQLVQSGAEVKKPGASVKVSCKASGYTFTNYGMNWVRQAPGQGLEWMGWINTYTGEPTYADDFKGRVTMTTDTSTSTAYMELRSLRSDDTAVYYCARIGDSSPSDYWGQGTLVTVSSGSTSGGGSGGGSGGGGSSEIVMTQSPATLSVSPGERATLSCKASQSVSNDVVWYQQKPGQAPRLLIYDASNRNTGIPARFSGSGSGTEFTLTISSLQSEDFAVYYCQQDYTSPWTFGQGTKLEIKEPKSSDKTHTCPPCPPCGGGSSGGGSGGQPREPQVYTLPPSREEMTKNQVSLTCLVKGFYPSDIAVEWESNGQPENNYKTTPPVLDSDGSFFLYSKLTVDKSRWQQGNVFSCSVMHEALHNHYTQKSLSLSPG | 0.123 nM | – | – | – | – | – | – | – | –
5 | IAB57M1-1 (other, Parental minibody; also called parental minibody IAB57M1-1) EIVMTQSPATLSVSPGERATLSCKASQSVSNDVVWYQQKPGQAPRLLIYYASNRYTGIPARFSGSGSGTEFTLTISSLQSEDFAVYYCQQDYTSPWTFGQGTKLEIKGSTSGGGSGGGSGGGGSSQVQLVQSGAEVKKPGASVKVSCKASGYTFTNYGMNWVRQAPGQGLEWMGWINTYTGEPTYADDFKGRVTMTTDTSTSTAYMELRSLRSDDTAVYYCARIGDSSPSDYWGQGTLVTVSSEPKSSDKTHTCPPCPPCGGGSSGGGSGGQPREPQVYTLPPSREEMTKNQVSLTCLVKGFYPSDIAVEWESNGQPENNYKTTPPVLDSDGSFFLYSKLTVDKSRWQQGNVFSCSVMHEALHNHYTQKSLSLSPG | 0.0946 nM | 3.33 nM | 0.00279 s⁻¹ | 838000 M⁻¹ s⁻¹ | – | 0.115 nM | – | – | –
6 | IAB57M1-7 (other, Signal peptide left out) EIVMTQSPATLSVSPGERATLSCKASQSVSNDVVWYQQKPGQAPRLLIYDASNRNTGIPARFSGSGSGTEFTLTISSLQSEDFAVYYCQQDYTSPWTFGQGTKLEIKGSTSGGGSGGGSGGGGSSQVQLVQSGAEVKKPGASVKVSCKASGYTFTNYGMNWVRQAPGQGLEWMGWINTYTGEPTYADDFKGRVTMTTDTSTSTAYMELRSLRSDDTAVYYCARIGDSSPSDYWGQGTLVTVSSEPKSSDKTHTCPPCPPCGGGSSGGGSGGQPREPQVYTLPPSREEMTKNQVSLTCLVKGFYPSDIAVEWESNGQPENNYKTTPPVLDSDGSFFLYSKLTVDKSRWQQGNVFSCSVMHEALHNHYTQKSLSLSPG | 0.111 nM | – | – | – | – | – | – | – | –
7 | IAB57M1-5 (other, Signal peptide left out) EIVMTQSPATLSVSPGERATLSCKASQSVSNDVVWYQQKPGQAPRLLIYYASNRNTGIPARFSGSGSGTEFTLTISSLQSEDFAVYYCQQDYTSPWTFGQGTKLEIKGSTSGGGSGGGSGGGGSSQVQLVQSGAEVKKPGASVKVSCKASGYTFTNYGMNWVRQAPGQGLEWMGWINTYTGEPTYADDFKGRVTMTTDTSTSTAYMELRSLRSDDTAVYYCARIGDSSPSDYWGQGTLVTVSSEPKSSDKTHTCPPCPPCGGGSSGGGSGGQPREPQVYTLPPSREEMTKNQVSLTCLVKGFYPSDIAVEWESNGQPENNYKTTPPVLDSDGSFFLYSKLTVDKSRWQQGNVFSCSVMHEALHNHYTQKSLSLSPG | 0.125 nM | – | – | – | – | – | – | – | –
